Experimental data reported in the nanobody polyreactivity screen of Harvey et al. (2022).

Assay: yeast display, Sf9 membrane polyspecificity reagent, FACS + sequencing; frameworks hold sequencing errors
Procedure, shortened: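 A nanobody's polyreactivity label depends on the gate it was sorted from. Yeast display cells were stained with 10% biotinylated, detergent-solubilized Sf9 membrane reagent for 1 hour at 4 °C, enriched on streptavidin microbeads and sorted by FACS. The low and high (top ~1%) gates were set on anti-HA fluorescence for expression and streptavidin fluorescence for reagent binding.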

Row | Sequence | polyreactivity (PSR sort gate)
1 | QVQLVESGGGLVQAGGSLRLSCAASGSTLVYYDMGWYRKAPGKERELVATITGTDSTYYADSVKGRFTISRDNAKNTVYLQMNSLKPEDTADCAADRAASRPDYDYWGQGTQVTVSS | low polyreactivity
2 | QVQLVESGGGLVQAGGSLRLSCAASGSTLWYNAMGWYRQAPGKERELVATITAGGGSTYYADSVKGRFTISRDNAKNTVYLQMNSLKPEDTAVYYCATRRSRGPWYRNAYDYWGQGTQVTVSS | low polyreactivity
3 | QVQLVESGGGLVQAGGSLRLSCAASGSTLYAYAMGWYRQAPGKERELVAAISFSTTSTYYADSVKGRFTISRDNAKNTVYLQMNSLKPEVTAVYYCAAEYWYYWEYEYWGQGTQVTVSS | high polyreactivity
4 | QVQLVESGGGLVQAGGSLRLSCAASGSTLYAYAMGWYRQAPGKERELVAAISSRAVRTYYADSVKGRFTISRDNAKNTVYLQMNSMKPEDTAVYYCAAQRSYAYEYWGQGTQVTVSS | high polyreactivity
5 | QVQLVESGGGLVQAGGSLRLSCAASGSTLYAYAMGWYRQAPGKERELVAGISSSGARTYYADSVKGRFTISRDNAKITVYLQMNSLKPEDTAVYYCAALAPVGTSKSYGYWGQGTQVTVSS | high polyreactivity
6 | QVQLVESGGGLVQAGGSLRLSCAASGSTLYAYAMGWYRQAPGKERELVASIPAGGITHYADSVKGRVTISRDNANNTVYLHMISLKPEDTAVDYCNTVAYLRRFDKWGMNYWGQGTQVTVSS | low polyreactivity
7 | QVQLVESGGGLVQAGGSLRLSCAASGSTLYAYVMGWYRQAPGKERELVATISWSGGRTYYADSVKGRFTISRDNAKNTVYLQMNSLKPEDTAVYYCNARRRYSYVSRKFDYWGQGTQVTVSS | high polyreactivity
8 | QVQLVESGGGLVQAGGSLRLSCAASGSTLYFNAMGWYRQAPGKERELVATITSGGSTYYADSVKGRFTISRDNAKNTVYFQMNSLKPEDTAAYYCNADFGSYATNGLTPLYDYWGQGTQVTVSS | high polyreactivity
9 | QVQLVESGGGLVQAGGSLRLSCAASGSTLYGNVMGWYRQAPGKESELVATINRGGSTNYADSVKGRFTISRDNAKNTVYLQMNSLKPEDTAVYYCAARAFAWYYLEDYWGQGTQVTVSS | low polyreactivity
10 | QVQLVESGGGLVQAGGSLRLSCAASGSTLYIYVMGWYRQAPGKERELVAAIDSGDDTDYADSVKGRFTISRDNAKNTVYLQMNSLKPEVTAVYYCAAQKWYYPYYWGKGTQVTVSS | high polyreactivity
11 | QVQLVESGGGLVQAGGSLRLSCAASGSTLYRNAMGWYRQAPGKERELVAAISSSGGTTFYADSVKGRFTISGDNAKNTVYLQMNCLKPEDSAVYYCIRTARKLRTVHSSVVGLDYWGQGTQVTVSS | low polyreactivity
12 | QVQLVESGGGLVQAGGSLRLSCAASGSTLYRYTMGWYRQAPGKERELVAAISSGGNTYYADSVKGRFTISRDNAKNTVYLQMNSLKPEDTAVYYCAAEDSVYIPYYDAFDYWGQGTQVTVSS | low polyreactivity
13 | QVQLVESGGGLVQAGGSLRLSCAASGSTLYTYAMGWYRQAPGKERELVAAIRLSGGRTYYADSVKGRFTISRDNAQNTVYLQMNSLKPEDTAVYYCAVDWSYSRYDYWGQGTQVTVSS | high polyreactivity
14 | QVQLVESGGGLVQAGGSLRLSCAASGSTLYTYAMGWYRQAPGKERELVATISWSGSSTYYADSVKGRFTISRDNAKNTVYLQMNSLKPEHTAVYYCAAPYHYWYRLDYWGQGTQVTVSS | high polyreactivity
15 | QVQLVESGGGLVQAGGSLRLSCAASGSTLYYNAMGWFRQAPGKERELVARISRSGGSTYADSVKGRFTISRDNAKNTVYLQMNMLKRDDTAVYYCNADAYGTPEFTSYAVRYDYWGQGTQVTVSS | low polyreactivity
16 | QVQLVESGGGLVQAGGSLRLSCAASGSTLYYNAMGWYRKAPGKERELVADITSGGSTSYADSVKGRFTISRDNAKNTVYLQMNSLKPEDTAVYYCAAVFYRRFDYWGQGTQVTVSS | low polyreactivity
17 | QVQLVESGGGLVQAGGSLRLSCAASGSTLYYNAMGWYRQAPGKERELVAAITSGGSTSYADSVKGRFTISRDNAKNTVYLQMNRLKPDDTAVYYCAAVFYRRFDYWGQGTQVTVSS | low polyreactivity
18 | QVQLVESGGGLVQAGGSLRLSCAASGSTQRFYAMGWYRQAPGKERELVAVISRGGSTYFADSVKGRFTISRDNAKNTVYLQMNSLKPEDTAVYYCAAYHRTSAARPIYDYWGQGTQVTVSS | low polyreactivity
19 | QVQLVESGGGLVQAGGSLRLSCAASGSTQRGYARGWYRQAPGKERELVASISRRGGSTYYADSVKGRFTISRDNAKNTVYLQMNSLKPEDTAVDYCAATGRRGYGYGYWGQGTQVTVSS | high polyreactivity
20 | QVQLVESGGGLVQAGGSLRLSCAASGSTRRYFKGWYRQAPGKERELVAVISRGGSTYYADSVKGRFTISGDNAKNTVYLQMNSLKPEDTAVYYCNVQPVIPRGGDYWGQGTQVTVSS | high polyreactivity
21 | QVQLVESGGGLVQAGGSLRLSCAASGSTRYNAMGWYRQAPGKERELVASIRGNAGSTYYADSVKGRFTISRDNAKNTVYLQMNSLKPEDTAVYYCNARVLRYSCFHYDYCGQGTQVTVSS | high polyreactivity

Row | Sequence | polyreactivity (PSR sort gate)
22 | QVQLVESGGGLVQAGGSLRLSCAASGSTSDINAMGWYRQAPGKERELVAAISSSGGRTYYADSVKGRFTISRDNAKNTVYLQMNSLKPEDTAVYYCAADTYTSAQHEKYDYWGQGTQVTVSS | low polyreactivity
23 | QVQLVESGGGLVQAGGSLRLSCAASGSTSDYYAMGWYRQAPGKERELVAAISWSGGSTYYADSVKGRFTISRDNAKNTVYLQMISLKPEDNAVYYCAAQHYNFSGPFEYWGQGTQVTVSS | low polyreactivity
24 | QVQLVESGGGLVQAGGSLRLSCAASGSTSERYDMGWYRQAPGKERELVATITWSGGDTHYADSVKGRFTISRDNAKNTVYLQMNSLKPVDTAVYYCAAEYTFVWGLWYDYWGQGTQVTVSS | low polyreactivity
25 | QVQLVESGGGLVQAGGSLRLSCAASGSTSFTYMGWYRQAPGTEREVVAAIDESGGSTYYADSVKGRFTISRDNAKNTVYLQMNTLKPEDTAGYYCTRRYGRSYRWGNGYWGQGTQVTVSA | low polyreactivity
26 | QVQLVESGGGLVQAGGSLRLSCAASGSTSGIYAMGWYRQAHGKERELVAAIDTSGGSTYADSVKGRFTISRDNAKNTVYLQMNSLKPEETAVYYCAKPFSSNSWSHGYWGQGTQVTVSS | low polyreactivity
27 | QVQLVESGGGLVQAGGSLRLSCAASGSTSHYNAMGWYRQAPGKERELVASITWSGGSTYYADSVKGRFTISRDNAKNTVYLQMYSLKPEDTAVYYCNAQERRVRDYDYWGQGTQVTVSS | low polyreactivity
28 | QVQLVESGGGLVQAGGSLRLSCAASGSTSLFYAMGWYRQAPGKERELVAGITNTARTYADSVKGRFTISRDNAKNTVYLQMKSLKPEDTAVYYCATGYNRWRPTFPFYYWGLGTQVTVSS | high polyreactivity
29 | QVQLVESGGGLVQAGGSLRLSCAASGSTSLVNAMGWYRQAPGKERELVAAITRGGNTYYADSVKGRFTISRDNAKNTVYLQMNSLKPEDTAVYYCNVGQDALYRLEYWGQGTQVTVSS | low polyreactivity
30 | QVQLVESGGGLVQAGGSLRLSCAASGSTSLVYAMGWYRQAPGKERELVAAISWSGGSTYYADSVKGRFTISRDNAKNTVYLQMKSLKPEDTAVYYCAAEYYGYWEYDYWGQGTQVTVSS | high polyreactivity
31 | QVQLVESGGGLVQAGGSLRLSCAASGSTSPRNAMGWYRQAPGKERELVAAISSGGRTNYAVSVKGRFTISRDNAKNTVYLQMNSLKPEDTAVYYCAAAVQSTYWGQGTQVTVSS | low polyreactivity
32 | QVQLVESGGGLVQAGGSLRLSCAASGSTSPVYAMGWYRQAPGKERELVAAISSSGSRTYYADSVKGRFTISRDNAKNTVYLQMNCLKPEDSAVYYCAADWWAWRAYYYWGQGTQVTVSS | high polyreactivity
33 | QVQLVESGGGLVQAGGSLRLSCAASGSTSQPYAMGWYRQAPGKERELVASITNGGITYYADSVKGRFTISRDNAKNTVYLQMNSLKPEDTAVYYCNADNVFEGYDRRSARASYRYYYWGQGTQVTVSS | low polyreactivity
34 | QVQLVESGGGLVQAGGSLRLSCAASGSTSQSNAMGRYRQAPGKERELVAAISWSGTSTYYADSVKGRFTISRDNAKNTVYLQMNSLKPEDTAVYYCAADYIFDYDYWGQGTQVTVSS | low polyreactivity
35 | QVQLVESGGGLVQAGGSLRLSCAASGSTSRKYTMGWYRQAPGKERELVATISWSGGSTYYADSVKGRFTISRDNAKNTVYLQMNSLKPEDTAVYYCAAATKVRNLGSFESPGPEVDYWGQGTQVTVSS | high polyreactivity
36 | QVQLVESGGGLVQAGGSLRLSCAASGSTSRTYAMGWYRQAPGQEMELVAAISSSGGRTYYADSVKGRFTISRDTAKNTVYLEMNSLKPEDTAVYYCNARTYSYRGYNYWGQGTQVTVSS | high polyreactivity
37 | QVQLVESGGGLVQAGGSLRLSCAASGSTSRYAMGWYRQAPGKERELVAAITRSGGTTYYADSVKGRYTISRDNAKNTVYLQMNSLKPEDTAVYYCATSDRQVKYDYWGQGTQVTVSS | low polyreactivity
38 | QVQLVESGGGLVQAGGSLRLSCAASGSTSSNNAMGWYRQAPGKEREFVADISSRGGSTYYADSVKGRFTISRDNAKNTVYLQMNSLKPEDTAVYYCARTRFWLRYRLFDYWGQGTHVTVSS | low polyreactivity
39 | QVQLVESGGGLVQAGGSLRLSCAASGSTSSVYAIGWYRQAPGKEREFVASITRRTGITFYADSVKGRFTISRDHAKNTVYLQMNSLKPEDTAVYYCAADFSGSVDYWGQGTQVTVSS | high polyreactivity
40 | QVQLVESGGGLVQAGGSLRLSCAASGSTSTTYTMGWYRQAPGKERELVAAISYSGGSTYYADSVKGRFTISRDNAKHTVYLQMNSLKPEDTAVYYCAAQSFVGWREYESWGQGTQVTVSS | high polyreactivity
41 | QVQLVESGGGLVQAGGSLRLSCAASGSTSTYYAMGWYRQAPGKERELVAAITLGAGRTYADSVKGRFTISRDNAKNTVYLQMNSLKPEDTAVYYCAADSHIDHGKWAYDYWGQGTQVTVSS | low polyreactivity
